Test results published in article PMC8640019.

Assays:
Test in all cases: SPR
Details in all cases: remark: other sources report otherwise
SPR [1] = substrate: CIS F116L-EloB/C (human), Q9NSE2
SPR [2] = substrate: CIS F74, F116L-EloB/C (human), Q9NSE2
SPR [3] = substrate: CIS R78G-EloB/C + F3 (human), Q9NSE2
[4] = target: CIS-Elo B/C + F3 (human), Q9NSE2
SPR [5] = substrate: CIS R78G-EloB/C (human), Q9NSE2
SPR [6] = substrate: CIS F74, F116L-EloB/C + F3 (human), Q9NSE2
SPR [7] = substrate: CIS F74L-EloB/C + F3 (human), Q9NSE2
SPR [8] = substrate: CIS R78G, F116L-EloB/C + F3 (human), Q9NSE2
SPR [9] = substrate: CIS R78G, F116L-EloB/C (human), Q9NSE2
[10] = target: SOCS2 FL + F3 (human), O14508
SOCS2 FL + F3 (human), O14508, sequence (O14508 whole entry, chain 1 of 3): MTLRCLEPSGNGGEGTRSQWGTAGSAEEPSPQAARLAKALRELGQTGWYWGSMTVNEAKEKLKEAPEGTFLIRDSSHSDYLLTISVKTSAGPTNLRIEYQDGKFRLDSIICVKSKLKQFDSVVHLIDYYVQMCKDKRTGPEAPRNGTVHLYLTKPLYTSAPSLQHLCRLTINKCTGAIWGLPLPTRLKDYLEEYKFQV
SOCS2 FL + F3 (human), O14508, sequence (Q15370 whole entry, chain 2 of 3, further chain): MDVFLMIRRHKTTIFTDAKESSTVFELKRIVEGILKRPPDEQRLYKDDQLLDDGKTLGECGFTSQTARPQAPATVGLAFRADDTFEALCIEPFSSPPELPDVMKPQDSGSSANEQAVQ
SOCS2 FL + F3 (human), O14508, sequence (Q15369 17-112, chain 3 of 3, further chain): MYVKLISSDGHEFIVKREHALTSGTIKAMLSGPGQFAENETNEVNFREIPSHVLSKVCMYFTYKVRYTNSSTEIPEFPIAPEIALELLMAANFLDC

- IC50 (SPR [1]): 6.6 µM
- IC50 (SPR [2]): 7 µM
- IC50 (SPR [3]): 2 µM
- IC50 [4]: 4.3 µM
- IC50 (SPR [5]): 6.7 µM
- IC50 (SPR [6]): 3.7 µM
- IC50 (SPR [7]): 4.2 µM
- IC50 (SPR [8]): 8.8 µM
- IC50 (SPR [9]): 20 µM
- IC50 [10]: 0.2 µM
B1: GHR pY595 peptide (peptide)
chain: PVPDYTSIHIV
modifications: here or on the partner: phosphotyrosine at 595
